The values that follow come from patent US20210179728A1 (OSE IMMUNOTHERAPEUTICS, published 2021).

Test [1] has as its target T1, recombinant hSIRPa (Sino Biologicals, reference 11612-H08H) (human, UniProt P78324 31-370).
T1 construct: also called SIRPa-His; human SIRPa-His; not shown: His tag (histidine tail)
Briefly: ELISA on immobilized SIRPa-His, peroxidase anti-human IgG, DO 450nm [panel CD86]. The protocol: (§1) Method: For ELISA assay, recombinant hSIRPa (Sino Biologicals, Beijing, China; reference 11612-H08H) was immobilized on plastic at 0.5 μg/ml in carbonate buffer (pH9.2) and different modified anti-SIRPa antibodies were added to measure binding to SIRPa.
(In general: In an ELISA, binding on a coated surface is turned into a signal by an enzyme label.)

The target in test [2] is T1, recombinant hSIRPa (Sino Biologicals, …). Briefly: competition ELISA on coated SIRPa-His; competitor biotinylated CD47-Fc at 6 ug/ml, streptavidin-peroxidase [panel CD86]. The protocol:
(§2) Method: For competitive ELISA assay, recombinant hSIRPa (Sino Biologicals, Beijing, China; reference 11612-H08H) was immobilized on plastic at 0.5 μg/ml in carbonate buffer (pH9.2).

Another test addresses T2, CTLA4-Fc (human, UniProt P16410 36-161, limits assumed).
T2 construct: not shown: Fc; not specified
Description: ELISA: modified antibody (concentration on the axis) captured on SIRPa-His, then CTLA4-Fc, detected with mouse anti-human CTLA4 [panel CD86]. From the text: (§3) FIG. 24. Ligand binding assay with the different modified anti-SIRPa antibodies by ELISA.

Test [3] addresses T1, recombinant hSIRPa (Sino Biologicals, …). Briefly: ELISA on immobilized SIRPa-His, peroxidase anti-human IgG, DO 450nm [panel OX40L]. As for the experimental part: as §1
The next test addresses T3, OX40Fc (human, UniProt P43489 29-216).
T3 construct: not shown: Fc; not specified
T3 sequence (looked up): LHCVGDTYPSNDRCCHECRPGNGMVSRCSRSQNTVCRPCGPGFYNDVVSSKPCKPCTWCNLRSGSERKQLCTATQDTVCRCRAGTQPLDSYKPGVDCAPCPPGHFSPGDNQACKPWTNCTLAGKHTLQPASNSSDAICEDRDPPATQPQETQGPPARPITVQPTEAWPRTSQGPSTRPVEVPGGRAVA
Description: ELISA: modified antibody (concentration on the axis) captured on SIRPa-His, then OX40Fc, detected with mouse anti-human OX40 [panel OX40L].
Text: as §3

In test [4] the target is T1, recombinant hSIRPa (Sino Biologicals, …). Description: ELISA on immobilized SIRPa-His, anti-human detection, DO 450nm [B,C, panel B table].
For test [5] the target is unchanged. Description: ELISA on immobilized hSIRPa-His, anti-human IgG detection, second experiment; second experiment. As for the experimental part: (§4) Method: The binding activity of the anti-SIRPa antibodies was assessed by ELISA.
For test [6] the target is unchanged. Briefly: ELISA on immobilized hSIRPa-His, anti-human IgG detection, third experiment. As for the experimental part: as §4
Test [7] has the same target. Briefly: SPR (Biacore); SIRPa-His immobilized on CM5 chip, antibody injected. The protocol:
FIG. 2. Affinity analysis by Biacore of anti-SIRP antibodies on human SIRPa recombinant protein. SIRPa-His recombinant protein was immobilized onto a CM5 chip at 5 μg/ml (500 RU) and the indicated antibodies were added at different concentration.
Method: Recombinant hSIRPa (Sino Biologicals, Beijing, China; reference 11612-H08H) was immobilized into a CM5 sensor chip (GeHealthcare; France) at 5 μg/ml (500 RU) and antibodies were applied at different concentrations with a flow rate of 40 μl/min. Analysis was performed with a BIAcore 3000 (Biacore, GeHealthcare).

The target in test [8] is T4, recombinant hSIRPb-His (Antibodies-online, reference ABIN3077231) (human, UniProt Q5TFQ8 30-371).
T4 construct: also called SIRPb-His (Blitz); not shown: His tag
Briefly: BLI (Blitz); SIRPb-His on Ni-NTA biosensor, antibody at 20 ug/ml [B, table A]. As for the experimental part: FIG. 7. (A) Affinity analysis by Blitz of anti-SIRP antibodies on human SIRPb recombinant protein. SIRPb-His recombinant protein was immobilized onto a NINTA biosensor and the indicated antibodies were added at 20 μg/ml. […] (B) Binding analysis of anti-SIRP antibodies (human SIRPb-His coating and anti-human kappa detection).
(§5) Method: This method was performed with a Blitz (Forte Bio; USA; reference C22-2 No 61010-1). Recombinant hSIRPb-His (Antibodies-online; USA; reference ABIN3077231) was immobilized at 10 μg/ml by histidine tail into a Ni-NTA biosensor (Forte Bio; USA; reference 18-0029) for 30 seconds. Then, an anti-SIRPa antibody was associated at 20 μg/mL for 120 seconds. The dissociation of anti-SIRPa antibody was made in kinetics buffer for 120 seconds. Analysis of data was made with the Blitz pro 1.2 software, which calculated association constant (ka) and dissociation constant (kd) and determined the affinity constant KD […].

For test [9], the target named is T1, recombinant hSIRPa (Sino Biologicals, …). Description: ELISA on immobilized hSIRPa-His, anti-human IgG detection, first experiment; first experiment. As for the experimental part: as §4
The target in test [10] is T5, recombinant hSIRPg-His (Sino Biologicals, reference 11828-H08H) (human, UniProt Q9P1W8 29-360).
T5 construct: also called human SIRPg-His; not shown: His tag
Description: BLI (Blitz); SIRPg-His on Ni-NTA biosensor, antibody at 10 ug/ml or 20 ug/ml (Example 9) [B, table A]. As for the experimental part:
FIG. 8. (A) Affinity analysis by Blitz of anti-SIRP antibodies on human SIRPg recombinant protein. SIRPg-His recombinant protein was immobilized onto a NINTA biosensor and the indicated antibodies were added at 10 μg/ml. […] (B) Binding analysis by ELISA assay of anti-SIRP antibodies on SIRPg (human SIRPg-His coating and anti-human kappa detection).
as §5, with “hSIRPg-His (Sino Biologicals, Beijing, China;” for “hSIRPb-His (Antibodies-online; USA;”, “11828-H08H)” for “ABIN3077231)”

The target of test [11] is T1, recombinant hSIRPa (Sino Biologicals, …). Briefly: competition ELISA on immobilized SIRPa-His; competitor biotinylated CD47-Fc at 6 ug/ml, streptavidin-peroxidase [second experiment table]. The protocol: as §2

B1: modified anti-SIRPa HEFLB antibody with ECD of CD86 on the light chain (antibody, human IgG4 S228P, kappa)
heavy: not shown
light: DVVMTQSPLSLPVTLGQPASISCRSSQSLVHSYGNTYLYWFQQRPGQSPRLLIYRVSNRFSGVPDRFSGSGSGTDFTLKISRVEAEDVGVYYCFQGTHVPYTFGGGTKVEIKRTVAAPSVFIFPPSDEQLKSGTASVVCLLNNFYPREAKVQWKVDNALQSGNSQESVTEQDSKDSTYSLSSTLTLSKADYEKHKVYACEVTHQGLSSPVTKSFNRGECGGGGSGGGGSGGGGSAPLKIQAYFNETADLPCQFANSQNQSLSELVVFWQDQENLVLNEVYLGKEKFDSVHSKYMGRTSFDSDSWTLRLHNLQIKDKGLYQCIIHHKKPTGMIRIHQMNSELSVLANFSQPEIVPISNITENVYINLTCSSIHGYPEPKKMSVLLRTKNSTIEYDGVMQKSQDNVTELYDVSISLSVSFPDVTSNMTIFCILETDKTRLLSSPFSIELEDPQPPPDH
notes: as m32, ECD of CD86; also called VH+VLprot (CD86); HEF + LB-CD86
For the molecule B1, the “EC50 (read off the curve)” value in test [1] is around 8 ng/mL. Also, the “IC50 (read off the curve)” value in test [2] was around 200 ng/mL. Besides, the binding result in the test with CTLA4-Fc is given as “binds”.

B2: modified anti-SIRPa HEFLB antibody with ECD of OX40L on the light chain (antibody, human IgG4 S228P, kappa)
heavy: not shown
light: DVVMTQSPLSLPVTLGQPASISCRSSQSLVHSYGNTYLYWFQQRPGQSPRLLIYRVSNRFSGVPDRFSGSGSGTDFTLKISRVEAEDVGVYYCFQGTHVPYTFGGGTKVEIKRTVAAPSVFIFPPSDEQLKSGTASVVCLLNNFYPREAKVQWKVDNALQSGNSQESVTEQDSKDSTYSLSSTLTLSKADYEKHKVYACEVTHQGLSSPVTKSFNRGECGGGGSGGGGSGGGGSQVSHRYPRIQSIKVQFTEYKKEKGFILTSQKEDEIMKVQNNSVIINCDGFYLISLKGYFSQEVNISLHYQKDEEPLFQLKKVRSVNSLMVASLTYKDKVYLNVTTDNTSLDDFHVNGGELILIHQNPGEFCVL
notes: as m32, ECD of OX40L; also called VH+VLprot (OX40L); HEF + LB-OX40L
For B2, the binding result (in test [3]; with OX40Fc) was “binds” throughout.

B3: modified anti-SIRPa HEFLB antibody with ECD of CD86 on the heavy chain (antibody, human IgG4 S228P, kappa)
heavy: not shown
light: DVVMTQSPLSLPVTLGQPASISCRSSQSLVHSYGNTYLYWFQQRPGQSPRLLIYRVSNRFSGVPDRFSGSGSGTDFTLKISRVEAEDVGVYYCFQGTHVPYTFGGGTKVEIKRTVAAPSVFIFPPSDEQLKSGTASVVCLLNNFYPREAKVQWKVDNALQSGNSQESVTEQDSKDSTYSLSSTLTLSKADYEKHKVYACEVTHQGLSSPVTKSFNRGEC
notes: as m25, ECD of CD86; also called VHprot+VL (CD86); VH-CD86
In the case of B3, in [1], the “EC50 (read off the curve)” value is around 9 ng/mL. Further, the “IC50 (read off the curve)” value in test [2] is around 200 ng/mL. Besides, the binding result in the test with CTLA4-Fc is recorded as “binds”.

B4: modified anti-SIRPa HEFLB antibody with ECD of OX40L on the heavy chain (antibody, human IgG4 S228P, kappa)
heavy: not shown
light: DVVMTQSPLSLPVTLGQPASISCRSSQSLVHSYGNTYLYWFQQRPGQSPRLLIYRVSNRFSGVPDRFSGSGSGTDFTLKISRVEAEDVGVYYCFQGTHVPYTFGGGTKVEIKRTVAAPSVFIFPPSDEQLKSGTASVVCLLNNFYPREAKVQWKVDNALQSGNSQESVTEQDSKDSTYSLSSTLTLSKADYEKHKVYACEVTHQGLSSPVTKSFNRGEC
notes: as m25, ECD of OX40L; also called VHprot+VL (OX40L); HEF-OX40L + LB
For the molecule B4, the binding result (in [3]; with OX40Fc) was “binds” each time.

B5: HELA (antibody, V domains shown)
VH: EVQLVQSGAEVKKPGESLRISCKASGYSFTSYWVHWVRQMPGKGLEWMGNIDPSDSDTHYSPSFQGHVTLSVDKSISTAYLQLSSLKASDTAMYYCVRGGTGTLAWFAYWGQGTLVTVSS
VL: DVVMTQSPLSLPVTLGQPASISCRSSQSLVHSYGNTYLYWYQQRPGQSPRLLIYRVSNRFSGVPDRFSGSGSGTDFTLKISRVEAEDVGVYFCFQGTHVPYTFGGGTKVEIK
notes: also called humanized 18D5 variant HELA
On to B5, for which the EC50 in [4] was 4.61 ng/mL.

B6: HCLA (antibody, human IgG4 S228P, kappa, V domains shown)
VH: EVQLVQSGAEVKKPGESLRISCKASGYSFTSYWVHWVRQMPGKGLEWMGNIDPSDSDTHYSPSFQGHVTLSVDKSISTAYLQLSSLKASDTAMYYCVRGGTGTMAWFAYWGQGTLVTVSS
VL: DVVMTQSPLSLPVTLGQPASISCRSSQSLVHSYGNTYLYWYQQRPGQSPRLLIYRVSNRFSGVPDRFSGSGSGTDFTLKISRVEAEDVGVYFCFQGTHVPYTFGGGTKVEIKR
notes: humanized 18D5 variant; also called humanized 18D5 variant HCLA
For the molecule B6, the EC50 in test [5] was found to be 5.6 ng/mL.

B7: chimeric mouse/human 18D5 antibody (antibody, human IgG4 S228P, kappa)
heavy: not shown
light: DVVMTQTPLSLPVSLGDQASISCRSSQSLVHSYGNTYLYWYLQKPGQSPKLLIYRVSNRFSGVPDRFSGSGSGTDFTLKISRVEAEDLGVYFCFQGTHVPYTFGSGTKLEIKRTVAAPSVFIFPPSDEQLKSGTASVVCLLNNFYPREAKVQWKVDNALQSGNSQESVTEQDSKDSTYSLSSTLTLSKADYEKHKVYACEVTHQGLSSPVTKSFNRGEC
notes: mouse variable domains on human IgG4m (S228P) / kappa constant domains; also called chimeric antibody; chimeric 18D5
As to B7, the EC50 stood at 2.74 ng/mL in test [6], 2.9 ng/mL in test [9] and 4.06 ng/mL in [5]. Also, the Kd in test [7] was found to be 0.344 nM; in test [8], 15.7 nM; in [10] it was 64.8 nM. Moreover, the koff in test [7] was 5.14e-05 s⁻¹; in [8], 0.00138 s⁻¹; in [10], 0.00319 s⁻¹. The kon stood at 149000 M⁻¹ s⁻¹ in test [7], 88400 M⁻¹ s⁻¹ in test [8] and 49300 M⁻¹ s⁻¹ in test [10]. The IC50 in [11] was 304 ng/mL.

As a reminder, the EC50 (read off the curve) is the concentration at which the effect is half-maximal. What is called EC50 is the midpoint of the concentration-response curve. A word on the Kd: it is the equilibrium constant for the complex coming apart. One may read the koff as the rate constant with which the complex falls apart. For orientation: kon means the second-order rate constant of association. The term IC50 denotes the concentration needed to halve the response being measured.
